# Reference: patent US20080221057A1, “SECRETED PROTEIN CCDC80 REGULATES ADIPOCYTE DIFFERENTIATION” (Wyeth, priority 2007, published 2008)
# B1: Ccdc80 shRNA: short hairpin RNA against mouse Ccdc80 (position 2015-2037), encoded by SEQ ID NO: 3, expressed from a retroviral vector (nucleic acid)
# chain: UGCUGUUGACAGUGAGCGCCCUGAGAAGGAGAAGAAGAAAUAGUGAAGCCACAGAUGUAUUUCUUCUUCUCCUUCUCAGGUUGCCUACUGCCUCGGA
# Legend:
# Type in all cases: cell-based, mouse
# Ccdc80 mRNA [1] = assay: Ccdc80 mRNA expression in growth-arrested 3T3-L1 cells treated with adipogenic inducers, real-time PCR; conditions: growth-arrested 3T3-L1 cells treated with one or more adipogenic inducers for 96 hr
# Procedure: RNA from undifferentiated and differentiated 3T3-L1 adipocytes, tissues from normal, 8- to 12-week-old male C57BL/6J mice, as well as tissues from 10-week-old male ob/ob and age-matched wild-type control mice, was obtained as described (Lake et al., J. Lipid Res 46:2477-2487, 2005). For thiazolidinedione (TZD) treatment, 10-week-old male ob/ob mice were gavaged once per day with 15 mg/kg rosiglitazone or vehicle for 21 days. Primary adipocytes and stromal vascular fraction were prepared from the epididymal adipose tissue of 8- to 12-week-old male C57BL/6J mice as described (Lake et al., J. Lipid Res 46:2477-2487, 2005). Total RNA was extracted using Trizol (Invitrogen) and purified using the RNeasy kit (Qiagen). RNA from human tissues was obtained from Clontech (Mountain View, Calif.). […] Biol. Chem. 281:27167-27177, 2006). Gene expression was also measured by real-time PCR. (n=3-6 mice per group)*p<0.05. Taqman real-time quantitative PCR was performed on a 7900HT fast real-time PCR system (Applied Biosystems) according to the manufacturer's instructions using 18S as an endogenous control as described before (Lake et al., J. Lipid Res 46:2477-2487, 2005). Pre-designed gene-specific primers and probes were obtained from Applied Biosystems. […] Neutral lipid accumulation in formalin-fixed adipocytes was determined by oil red O staining according to methods well known in the art.
# 3T3-L1 cells [2] = assay: 3T3-L1 adipocyte differentiation, lipid accumulation by oil red O staining; conditions: data not shown
# Procedure: 3T3-L1 cells were maintained in DMEM containing 20% calf serum in an atmosphere of 10% CO2 at 37° C. Two days post-confluence, cells were induced to differentiate into adipocyte using DMEM containing 10% FBS supplemented with 500 μM 3-isobutyl-1-methylxanthine, 1 μM dexamethasone and 1.7 μM insulin for 4 days, followed by DMEM containing 10% FBS and 0.85 μM insulin for 2 days, then DMEM containing only 10% FBS for an additional 2-4 days. Neutral lipid accumulation in formalin-fixed adipocytes was determined by oil red O staining according to methods well known in the art.
# Ccdc80 mRNA [3] = assay: Silencing of Ccdc80 by RNA interference in stable 3T3-L1 cell lines, Ccdc80 mRNA by real-time PCR; conditions: stable 3T3-L1 line, vs non-silencing shRNA
# Procedure: RNA from undifferentiated and differentiated 3T3-L1 adipocytes, tissues from normal, 8- to 12-week-old male C57BL/6J mice, as well as tissues from 10-week-old male ob/ob and age-matched wild-type control mice, was obtained as described (Lake et al., J. Lipid Res 46:2477-2487, 2005). For thiazolidinedione (TZD) treatment, 10-week-old male ob/ob mice were gavaged once per day with 15 mg/kg rosiglitazone or vehicle for 21 days. Primary adipocytes and stromal vascular fraction were prepared from the epididymal adipose tissue of 8- to 12-week-old male C57BL/6J mice as described (Lake et al., J. Lipid Res 46:2477-2487, 2005). Total RNA was extracted using Trizol (Invitrogen) and purified using the RNeasy kit (Qiagen). RNA from human tissues was obtained from Clontech (Mountain View, Calif.). Gene expression profiling was performed using the Mouse Genome 430 2.0 array (Affymetrix) as previously described (Berasi et al., J. Biol. Chem. 281:27167-27177, 2006). Gene expression was also measured by real-time PCR. (n=3-6 mice per group)*p<0.05. Taqman real-time quantitative PCR was performed on a 7900HT fast real-time PCR system (Applied Biosystems) according to the manufacturer's instructions using 18S as an endogenous control as described before (Lake et al., J. Lipid Res 46:2477-2487, 2005). Pre-designed gene-specific primers and probes were obtained from Applied Biosystems. […]
# Ccdc80 = assay: Secretion of Ccdc80 from 3T3-L1 cells, western blot of conditioned medium; conditions: growth-arrested and terminally differentiated 3T3-L1, vs non-silencing shRNA
# Procedure: The Ccdc80-FLAG containing expression vector (pSMED2-Ccdc80-FLAG), as well as a control vector (pSMED2) were transfected into HEK293 T cells. In particular, HEK293T were seeded at a density of 2×10^6 cells in 10-cm Petri dishes. Cells were transfected with pSmed2 or pSmed2-Ccdc80-FLAG using Fugene6 (Roche). Two days after transfection, cells were placed in serum-free DMEM and medium was collected 24 hr later. Endogenous secretion of Ccdc80 was evaluated in 3T3-L1 preadipocytes and fully differentiated adipocytes. 3T3-L1 cells were rinsed twice with PBS and incubated in serum-free DMEM for 48 hrs before medium was collected. Conditioned media were analyzed by 4-10% SDS-PAGE followed by silver staining or immunological detection with anti-FLAG M2 (293T) or anti-Ccdc80 (3T3-L1) antibodies.
# 3T3-L1 cells [4] = assay: mRNA expression of genes involved in adipogenesis, metabolism and signaling in 3T3-L1 cells (microarray, real-time PCR)
# Procedure: (§1) RNA from undifferentiated and differentiated 3T3-L1 adipocytes, tissues from normal, 8- to 12-week-old male C57BL/6J mice, as well as tissues from 10-week-old male ob/ob and age-matched wild-type control mice, was obtained as described (Lake et al., J. Lipid Res 46:2477-2487, 2005). For thiazolidinedione (TZD) treatment, 10-week-old male ob/ob mice were gavaged once per day with 15 mg/kg rosiglitazone or vehicle for 21 days. Primary adipocytes and stromal vascular fraction were prepared from the epididymal adipose tissue of 8- to 12-week-old male C57BL/6J mice as described (Lake et al., J. Lipid Res 46:2477-2487, 2005). Total RNA was extracted using Trizol (Invitrogen) and purified using the RNeasy kit (Qiagen). RNA from human tissues was obtained from Clontech (Mountain View, Calif.). Gene expression profiling was performed using the Mouse Genome 430 2.0 array (Affymetrix) as previously described (Berasi et al., J. Biol. Chem. 281:27167-27177, 2006). Gene expression was also measured by real-time PCR. (n=3-6 mice per group)*p<0.05. Taqman real-time quantitative PCR was performed on a 7900HT fast real-time PCR system (Applied Biosystems) according to the manufacturer's instructions using 18S as an endogenous control as described before (Lake et al., J. Lipid Res 46:2477-2487, 2005). Pre-designed gene-specific primers and probes were obtained from Applied Biosystems. Data shown in FIGS. 1A-E and 1G, FIG. 3 B-D, FIG. 4D, FIG. 5A, C, D, FIG. 6, and FIG. 7A are obtained by real-time PCR; data shown in FIG. 1F, and FIG. 4C are derived from microarray analysis.
# Akt and ERK = assay: Insulin stimulation and immunoblot analysis of Akt and ERK phosphorylation in 3T3-L1 cells; conditions: Ccdc80-KD cells
# Procedure: Differentiated 3T3-L1 adipocytes were deprived of serum for 2 hr before stimulation with 10 nM insulin for 10 min. Cells were rinsed twice in ice-cold PBS and lysed as previously described (Tremblay and Marette, J. Biol. Chem. 276:38052-38060, 2001). Equal amounts of proteins were separated on 4-12% SDS-PAGE and transferred to nitrocellulose membranes. Phosphorylation of Akt (Ser473) and ERK-½ (Thr202/Tyr204) was determined using phospho-specific antibodies (Cell Signaling Technologies).
# [5] = system: Wnt/β-catenin signaling pathway; assay: Wnt/β-catenin pathway gene expression in 3T3-L1 cells, real-time PCR low-density array
# Procedure: as §1
# [6] = system: TCF-mediated transcriptional activity; assay: TOPFLASH luciferase reporter assay in 3T3-L1 cells; conditions: vs non-silencing shRNA
# Procedure: HepG2 cells were seeded at a density of 8×10^4 cells per well in 24-well plates and grown for 24 hr in antibiotic-free DMEM containing 10% FBS. Cells were transfected with 0.8 μg TOPFLASH and 0.2 μg β-galactosidase reporter plasmids using Lipofectamine 2000 (Invitrogen), rinsed with PBS 4 hr later and infected with adenovirus encoding either GFP or Ccdc80 in opti-MEM. Serum (final concentration: 10% FBS) was added to each well 2 hr after infection and cells were collected 24 hr later. 3T3-L1 cells were seeded at a density of 2.5×10^5 cells per well in 24-well plates. Cells were transfected with 1 μg TOPFLASH and 0.2 μg β-galactosidase reporter plasmids using Fugene 6 and grown in DMEM containing 20% calf serum until 2 days post-confluency. Cells were collected prior to and 24, 48 and 96 hr after induction of differentiation with insulin, 3-isobutyl-1-methylxanthine and dexamethasone as described above. Luciferase and β-galactosidase activities were measured according to manufacturer's instructions (Promega). Luciferase value was normalized to β-galactosidase activity.
# 3T3-L1 cells [7] = assay: Proliferation of 3T3-L1 pre-adipocytes; conditions: stable retroviral expression in 3T3-L1 cells
# [8] = Ccdc80-KD cells, end of differentiation, microarray
molecule,measurement,setting,value
"CC(C)Cn1c(=O)n(C)c(=O)c2[nH]cnc21 [IBMX, 3-isobutyl-1-methylxanthine]",Ccdc80 mRNA levels,Ccdc80 mRNA [1],significantly reduce
N#CC(=C(/N)Sc1ccccc1N)/C(C#N)=C(\N)Sc1ccccc1N [U0126],reversal of inhibited adipogenesis phenotype,"3T3-L1 cells [2]; Ccdc80-KD cells, 1 or 10 μM",no reversal of phenotype
same,adipogenesis of control cells,"3T3-L1 cells [2]; control cells, treatment during clonal expansion",inhibited adipogenesis
insulin,Ccdc80 mRNA levels,Ccdc80 mRNA [1],significantly reduce
B1,reduction of the expression of Ccdc80,Ccdc80 mRNA [3],40-50%
same,secretion of Ccdc80 protein,Ccdc80,markedly blunted the secretion
same,ability to differentiate into adipocytes (oil red O staining),"3T3-L1 cells [2]; knockdown cell line, end of the differentiation protocol",reduced oil red O staining
same,expression of GLUT1,3T3-L1 cells [4]; Ccdc80-KD cells,unchanged
same,expression of GLUT4,3T3-L1 cells [4]; Ccdc80-KD cells,decreased
same,expression of C/EBPα and PPARγ,3T3-L1 cells [4]; [8],significantly decreased
same,expression of KLF5 and TCF4,3T3-L1 cells [4]; [8],significantly increased
same,"expression of genes involved in lipid metabolism (aP2, CD36, DGAT1/2, LIPIN1, LPL and SCD1/2)",3T3-L1 cells [4]; [8],impaired
same,"magnitude of induction of aP2, C/EBPα and PPARγ during clonal expansion","3T3-L1 cells [4]; Ccdc80-KD cells, real-time PCR, maintained throughout terminal differentiation",severely attenuated
same,expression of common mediators of the insulin signaling pathway,3T3-L1 cells [4]; control vs knockdown cells,no obvious difference
same,insulin-stimulated phosphorylation of Akt and ERK1/2,Akt and ERK; 10 nM insulin for 10 min,unaffected
same,basal phosphorylation of ERK1/2,Akt and ERK; no insulin,elevated
same,repression of Cyclin D1 mRNA levels by adipogenic inducers during clonal expansion,"[5]; 3T3-L1, change from growth arrest to clonal expansion, adenovirus at MOI 2000",severely compromised
same,"expression of β-catenin signaling mediators (APC, β-catenin, Dvl-1, Frizzled-1, GSK3 A, LRP5/6 and Wnt10b)",[5]; Ccdc80-KD cells during differentiation,Only very little changes
same,TCF4 mRNA levels,"[5]; Ccdc80-KD cells, after terminal differentiation",increased
same,expression of LEF1,"[5]; Ccdc80-KD cells, following clonal expansion",down-regulation
same,TOPFLASH activity,[6]; growth arrest (T=0),similar
same,TOPFLASH activity,"[6]; throughout clonal expansion (24, 48 and 96 hr after induction)",significantly more elevated
same,proliferation of pre-adipocyte,3T3-L1 cells [7],increased
